From publication doi:10.1101/737098

Target: wild-type KRAS4b GTPase domain (1-169), GMPPNP-bound (human) (UniProt P01116)
Assay: ITC

Kd: 1 µM
Substance: NF1-GRD (GAP-related domain of neurofibromin 1) (from UniProt P21359-2 1198-1530) (domain or fragment)
